In patent publication US20200048358A1 (ALLIGATOR BIOSCIENCE, published 2020):
Residue numbers refer to the chain shown, from its start. One block for each binder: values may come before it.

How the values were obtained:
[1] = molecular target: T1, chimeric OX40 construct 1545: Human OX40 with mouse domains 1B, 2A and 2B (aa 43-107) (human; mouse, UniProt P47741 39-103); assay: flow cytometry, transfected 293-F cells
T1 construct: domain: 1B, 2A and 2B; On 293-F cells; limits derived as for 1544
T1 sequence: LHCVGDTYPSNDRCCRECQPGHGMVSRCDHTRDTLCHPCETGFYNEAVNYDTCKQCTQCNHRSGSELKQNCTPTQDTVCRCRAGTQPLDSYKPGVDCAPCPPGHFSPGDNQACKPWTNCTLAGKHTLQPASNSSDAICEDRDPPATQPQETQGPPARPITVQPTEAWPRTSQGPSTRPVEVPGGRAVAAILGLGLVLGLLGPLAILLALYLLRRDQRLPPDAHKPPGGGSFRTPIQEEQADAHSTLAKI
Experimental: (§1) The mouse/human chimeras were transiently transfected into FreeStyle 293-F cells (Invitrogen), incubated 48 hours in FreeStyle 293 expression medium (Invitrogen) 37 C, 8% CO₂, 135 rpm. The transfected cells were incubated with human OX40 antibodies, human OX40L (hOX40L, RnD Systems), mouse OX40L (mOX40L, RnD Systems) and controls for 30 min 4° C. and then detected with a-huIgG-PE (Jackson lmmunoresearch) 30 min 4° C. Cells were analyzed with FACS Verse (BD Biosciences). Binding to the different chimeric constructs were calculated as relative (mean fluorescence intensity) MFI compared to the binding of the isotype control.

[2] = molecular target: T2, chimeric OX40 construct 1546: Human OX40 with mouse domains 2A, 2B and module 3 (aa 66-126) (human; mouse, UniProt P47741 62-124); assay: flow cytometry, transfected 293-F cells
T2 construct: domain: 2A, 2B and module 3; On 293-F cells; limits derived as for 1544
T2 sequence: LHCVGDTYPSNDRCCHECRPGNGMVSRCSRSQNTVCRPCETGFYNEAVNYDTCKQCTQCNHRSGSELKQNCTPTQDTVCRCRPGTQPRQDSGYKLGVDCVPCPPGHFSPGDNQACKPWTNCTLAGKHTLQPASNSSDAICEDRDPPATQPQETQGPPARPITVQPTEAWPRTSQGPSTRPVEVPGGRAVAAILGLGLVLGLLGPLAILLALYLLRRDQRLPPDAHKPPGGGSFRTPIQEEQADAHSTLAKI
Experimental: as §1

[3] = molecular target: T3, chimeric OX40 construct 1547: Human OX40 with mouse domain 2B, module 3 and domain 4A (aa 83-141) (human; mouse, UniProt P47741 79-139); assay: flow cytometry, transfected 293-F cells
T3 construct: domain: 2B, module 3 and domain 4A; On 293-F cells; limits derived as for 1544
T3 sequence: T2 sequence with E40G, T41P, E46D, A47V, N49S, Y50S, D51K, T52P, D111N
Experimental: as §1

[4] = molecular target: T4, chimeric OX40 construct 1548: Human OX40 with mouse module 3 and domains 4A and 4B (aa 108-167) (human; mouse, UniProt P47741 104-165); assay: flow cytometry, transfected 293-F cells
T4 construct: domain: module 3 and domains 4A and 4B; On 293-F cells; limits derived as for 1544
T4 sequence: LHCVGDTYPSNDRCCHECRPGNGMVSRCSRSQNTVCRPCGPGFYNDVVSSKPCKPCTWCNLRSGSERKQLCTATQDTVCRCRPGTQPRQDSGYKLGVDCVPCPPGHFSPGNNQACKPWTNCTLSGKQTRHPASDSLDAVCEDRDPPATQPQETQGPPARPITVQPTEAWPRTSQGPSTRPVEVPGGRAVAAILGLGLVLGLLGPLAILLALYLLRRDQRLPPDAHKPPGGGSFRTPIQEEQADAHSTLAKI
Experimental: as §1

[5] = molecular target: T5, construct 84: Construct containing the full length OX40 sequence (human, UniProt P43489 29-277); assay: flow cytometry, transfected 293-F cells
T5 construct: On transiently transfected FreeStyle 293-F cells; also called human OX40 (full length, on 293-F cells)
T5 sequence: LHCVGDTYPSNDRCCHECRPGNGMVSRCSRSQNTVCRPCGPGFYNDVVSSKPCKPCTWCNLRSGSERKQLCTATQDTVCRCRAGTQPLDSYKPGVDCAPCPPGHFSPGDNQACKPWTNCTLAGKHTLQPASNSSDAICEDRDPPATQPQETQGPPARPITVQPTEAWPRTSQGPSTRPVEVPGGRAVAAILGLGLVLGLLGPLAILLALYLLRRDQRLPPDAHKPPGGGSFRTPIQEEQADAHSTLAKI
Experimental: as §1

[6] = molecular target: T6, CTLA4-Fc (Fitzgerald, #30R-CD152) (human, UniProt P16410 38-152, biotinylated where used as soluble reagent in the inhibition ELISAs); assay: SPR (Biacore); ratio [Kd for CD28]/[Kd for CTLA-4]
T6 construct: Bought reagent; also called human CTLA-4 (Fitzgerald); biotinylated-CTLA4
T6 sequence (P16410 38-152 limits assumed): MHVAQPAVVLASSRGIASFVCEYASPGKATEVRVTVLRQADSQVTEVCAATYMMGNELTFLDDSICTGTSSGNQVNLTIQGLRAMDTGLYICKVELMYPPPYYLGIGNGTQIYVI
Experimental: Either CTLA4-Fc (Fitzgerald, #30R-CD152) or CD28-Fc (R&D Systems, 342-CD) was immobilized to the Biacore™ sensor chip, CM5, using conventional amine coupling. […] The association was followed for 3 minutes and the dissociation for 10 minutes. Regeneration was performed twice using 5 mM NaOH for 30 seconds. The kinetic parameters and the affinity constants were calculated using BIAevaluation 4.1 software (Table 1.3).

[7] = molecular target: T6, CTLA4-Fc (Fitzgerald, #30R-CD152); assay: binding ELISA; ratio [EC50 for CD28-Fc]/[EC50 for CTLA4-Fc]
Experimental: 96-well flat bottom high binding plates (Greiner, #655074) were coated with either CTLA4-Fc (Fitzgerald, #30R-CD152) or CD28-Fc (R&D systems, 342-CD) by incubating overnight at 4° C. […] The plates were washed again and sample or controls (serially diluted 1/5 from 200-0.001 μg/ml) were added to the wells. The samples were incubated for 1 h at room temperature and then washed. Detection antibody, goat-anti-human IgG Fcγ-HRP (Jackson, #109-035-098) was added and the plates were subsequently developed using SuperSignal Pico Chemiluminescent substrate (Thermo Scientific, #37069) and detected with an Envision reader (Perkin Elmer). EC50 values were calculated for both CTLA4 and CD28. The binding ratio (EC50 binding ratio=[EC50 for CD28]÷[EC50 for CTLA-4]) was calculated for each polypeptide and is shown in Table 1.1.

[8] = molecular target: T7, chimeric OX40 construct 1544: Human OX40 with mouse domains 1A, 1B and 2A (aa 30-81) (human; mouse, UniProt P47741 26-77); assay: flow cytometry, transfected 293-F cells
T7 construct: domain: 1A, 1B and 2A; On transiently transfected FreeStyle 293-F cells
T7 sequence: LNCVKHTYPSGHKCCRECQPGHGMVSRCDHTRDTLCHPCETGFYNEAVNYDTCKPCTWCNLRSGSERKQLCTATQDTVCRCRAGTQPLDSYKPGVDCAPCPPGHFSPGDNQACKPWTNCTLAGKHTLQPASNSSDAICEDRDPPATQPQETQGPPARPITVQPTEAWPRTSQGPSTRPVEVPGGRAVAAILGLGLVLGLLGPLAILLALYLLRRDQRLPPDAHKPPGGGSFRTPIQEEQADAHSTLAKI
Experimental: as §1

relative MFI compared to isotype control [1]: 37.3
relative MFI compared to isotype control [2]: 0.9
relative MFI compared to isotype control [3]: 1
relative MFI compared to isotype control [4]: 1
relative MFI compared to isotype control [5]: 27.5
B1: anti-OX40 antibody 1164/1135 (antibody, V domains shown)
VH: EVQLLESGGGLVQPGGSLRLSCAASGFTFYGSSMYWVRQAPGKGLEWVSGIYSSGGYTSYADSVKGRFTISRDNSKNTLYLQMNSLRAEDTAVYYCARGVPHGYFDYWGQGTLVTVSS
VL: not shown
notes: Tested as IgG

relative MFI compared to isotype control [4]: 1.1
B2: anti-OX40 antibody 1490/1135 (antibody, V domains shown)
VH: EVQLLESGGGLVQPGGSLRLSCAASGFTFSSYAMSWVRQAPGKGLEWVSGISYYGGYTYYADSVKGRFTISRDNSKNTLYLQMNSLRAEDTAVYYCARYYPHHYIDYWGQGTLVTVSS
VL: not shown
notes: Tested as IgG

Kd binding ratio [6]: 1.6
EC50 binding ratio [7]: 3.4
B3: human wild-type CD86 (monomeric soluble extracellular domain), sample 'Wild type' (ligand)
chain: APLKIQAYFNETADLPCQFANSQNQSLSELVVFWQDQENLVLNEVYLGKEKFDSVHSKYMGRTSFDSDSWTLRLHNLQIKDKGLYQCIIHHKKPTGMIRIHQMNSELSVLA
notes: also called wild type protein

Kd binding ratio [6]: 5.1
EC50 binding ratio [7]: 7.7
B4: CD86 mutant 910 (ligand)
chain: LKIQAYFNETADLPCQFANSQNQSLSELVVFWQDQENLVLNEVYLGKEKFDSVDSKYMGRTSFDSDSWTLRLHNLQIKDKGIYQCIIHHKKPTGMVKIHEMNSELSVLA
notes: Variant of the soluble extracellular domain of human CD86

Kd binding ratio [6]: 5.6
EC50 binding ratio [7]: 30.5
B5: CD86 mutant 907 (ligand)
chain: B4 chain with D54H, I82L, V96I
notes: as for B4

Kd binding ratio [6]: 6.8
EC50 binding ratio [7]: 12.2
B6: CD86 mutant 904 (ligand)
chain: B4 chain with V29I, K49R, S52A, T93S, E100Q, N102D
notes: as for B4

Kd binding ratio [6]: 5.5
EC50 binding ratio [7]: 2
B7: CD86 mutant 938 (ligand)
chain: B4 chain with V39I, D54H, E100Q
notes: as for B4

Kd binding ratio [6]: 2.7
EC50 binding ratio [7]: 17.2
B8: CD86 mutant 901 (ligand)
chain: B4 chain with Q23L, S24T, D54H, I86V, V96I, A109T
notes: as for B4

Kd binding ratio [6]: 4.7
EC50 binding ratio [7]: 6.2
B9: CD86 mutant 908 (ligand)
chain: B4 chain with D54H
notes: as for B4

EC50 binding ratio [7]: 3.5
B10: CD86 mutant 900 (ligand)
chain: B4 chain with I86V, T93S, M95L
notes: as for B4

Kd binding ratio [6]: 1.9
EC50 binding ratio [7]: 9.9
B11: CD86 mutant 915 (ligand)
chain: B4 chain with V39I, I82F, T93S, M95L, V96I, E100Q, N102D
notes: as for B4

Kd binding ratio [6]: 0.8
EC50 binding ratio [7]: 16.2
B12: CD86 mutant 906 (ligand)
chain: B4 chain with F7I, Q23L, K49R, I82F, M95L
notes: as for B4

relative MFI compared to isotype control [4]: 17.2
B13: anti-OX40 antibody 1514/1515 (antibody, V domains shown)
VH: EVQLLESGGGLVQPGGSLRLSCAASGFTFGYYYMSWVRQAPGKGLEWVSGISSYGSYTYYADSVKGRFTISRDNSKNTLYLQMNSLRAEDTAVYYCARSGYSNWANSFDYWGQGTLVTVSS
VL: DIQMTQSPSSLSASVGDRVTITCRASQSISSYLNWYQQKPGKAPKLLIYAASSLQSGVPSRFSGSGSGTDFTLTISSLQPEDFATYYCQQGDYTLFTFGQGTKLEIK
notes: Tested as IgG

relative MFI compared to isotype control [8]: 1.5
relative MFI compared to isotype control [1]: 0.9
relative MFI compared to isotype control [2]: 0.9
relative MFI compared to isotype control [3]: 1
relative MFI compared to isotype control [4]: 15.4
relative MFI compared to isotype control [5]: 31.4
B14: anti-OX40 antibody 1524/1525 (antibody, V domains shown)
VH: EVQLLESGGGLVQPGGSLRLSCAASGFTFGSYYMGWVRQAPGKGLEWVSSIGSYYGYTYYADSVKGRFTISRDNSKNTLYLQMNSLRAEDTAVYYCARHDYGALDYWGQGTLVTVSS
VL: DIQMTQSPSSLSASVGDRVTITCRASQSISSYLNWYQQKPGKAPKLLIYAASSLQSGVPSRFSGSGSGTDFTLTISSLQPEDFATYYCQQYGPSGLFTFGQGTKLEIK
notes: Tested as IgG

relative MFI compared to isotype control [4]: 15.8
B15: anti-OX40 antibody 1166/1167 (antibody, V domains shown)
VH: EVQLLESGGGLVQPGGSLRLSCAASGFTFGGYYMSWVRQAPGKGLEWVSAISGSGGSTYYADSVKGRFTISRDNSKNTLYLQMNSLRAEDTAVYYCARYDYASMDYWGQGTLVTVSS
VL: B14 VL with G92Y, P93W, S94Y, F97S
notes: also called monospecific OX40 antibody

relative MFI compared to isotype control [4]: 20.3
B16: anti-OX40 antibody 1170/1171 (antibody, V domains shown)
VH: B15 VH with A50Y, S52P, A102Y, S103W
VL: B14 VL with Y91G, G92H, P93G, G95Y, L96P, F97H
notes: Tested as IgG
